# According to patent publication US20020068361A1, “METHODS OF EVALUATING SPECIFIC CELLULAR FUNCTIONS OF RECEPTOR PROTEIN TYROSINE KINASES IN A LIGAND INDEPENDENT MANNER” (priority 1997, published 2002):
# Legend:
# [1] = target: T1, rat TRKA receptor (Rattus norvegicus, UniProt P35739); experiment: Antibody/ligand recognition of rat TRKA receptor; type: binding
# T1 construct: endogenous in cells
# Description: (§1) The antibody preparation used in the experiments, called CTA, was a rabbit antibody raised against the entire extracellular domain of chicken TRKA expressed in COS cells. […] A useful control for these experiments was to activate the endogenous rat TRKA receptor without influencing the introduced chimeric receptor.
# (§2) While the chick receptor became phosphorylated by both treatments, activation of the rat receptor was detected only after NGF addition. […] The effects of the CTA antibody preparation were therefore not attributable to activation of endogenous TRKA receptors.
# [2] = target: T2, chick TRKA receptor (Gallus gallus, UniProt Q91009); experiment: Antibody/ligand recognition of chick TRKA receptor; type: binding, chicken; conditions: immunoblot or immunoprecipitation; receptor activation
# T2 construct: expressed in transfected cells
# T2 sequence (Q91009 15-778): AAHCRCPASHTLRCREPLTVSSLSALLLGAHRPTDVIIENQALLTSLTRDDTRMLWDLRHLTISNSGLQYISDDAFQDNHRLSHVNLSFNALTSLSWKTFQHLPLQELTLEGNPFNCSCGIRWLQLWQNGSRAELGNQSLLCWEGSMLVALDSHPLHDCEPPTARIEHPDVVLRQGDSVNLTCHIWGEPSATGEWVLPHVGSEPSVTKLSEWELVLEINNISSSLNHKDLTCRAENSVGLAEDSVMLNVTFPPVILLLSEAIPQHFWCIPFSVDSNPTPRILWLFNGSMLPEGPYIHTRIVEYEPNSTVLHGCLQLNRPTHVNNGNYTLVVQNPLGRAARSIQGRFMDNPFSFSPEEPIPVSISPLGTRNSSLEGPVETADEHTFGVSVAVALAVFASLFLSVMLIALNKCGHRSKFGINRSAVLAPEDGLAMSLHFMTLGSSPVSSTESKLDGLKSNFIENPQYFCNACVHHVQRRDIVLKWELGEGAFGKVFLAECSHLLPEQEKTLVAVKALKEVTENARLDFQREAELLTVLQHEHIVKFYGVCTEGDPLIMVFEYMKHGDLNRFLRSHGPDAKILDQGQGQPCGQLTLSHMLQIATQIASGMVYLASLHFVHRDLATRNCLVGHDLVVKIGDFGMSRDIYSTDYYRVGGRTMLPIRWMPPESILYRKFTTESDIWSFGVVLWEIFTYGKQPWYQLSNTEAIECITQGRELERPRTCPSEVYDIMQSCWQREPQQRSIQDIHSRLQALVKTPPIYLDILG
# Description: as §1, §2
# T1 sequence (P35739 33-799): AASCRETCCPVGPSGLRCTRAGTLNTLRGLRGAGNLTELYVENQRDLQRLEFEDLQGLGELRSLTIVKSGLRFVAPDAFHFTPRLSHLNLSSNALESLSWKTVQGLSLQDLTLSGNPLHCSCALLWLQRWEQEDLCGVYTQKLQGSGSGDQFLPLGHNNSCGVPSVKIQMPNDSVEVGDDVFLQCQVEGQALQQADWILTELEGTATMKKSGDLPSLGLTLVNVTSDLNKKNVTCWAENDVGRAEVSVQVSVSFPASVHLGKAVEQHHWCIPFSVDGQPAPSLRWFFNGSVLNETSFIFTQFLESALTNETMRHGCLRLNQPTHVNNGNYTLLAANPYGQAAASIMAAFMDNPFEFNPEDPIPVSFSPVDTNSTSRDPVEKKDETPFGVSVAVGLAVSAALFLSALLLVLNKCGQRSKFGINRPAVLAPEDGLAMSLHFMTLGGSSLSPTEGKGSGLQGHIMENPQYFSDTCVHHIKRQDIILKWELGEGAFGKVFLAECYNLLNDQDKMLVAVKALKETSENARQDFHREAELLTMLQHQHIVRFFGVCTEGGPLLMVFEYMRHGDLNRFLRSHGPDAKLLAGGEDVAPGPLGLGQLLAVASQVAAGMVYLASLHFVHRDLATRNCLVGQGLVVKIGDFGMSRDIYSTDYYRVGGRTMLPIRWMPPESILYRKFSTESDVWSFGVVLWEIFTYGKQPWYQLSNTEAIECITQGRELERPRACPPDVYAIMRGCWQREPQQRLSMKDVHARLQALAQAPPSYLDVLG
substance,measurement,setting,value
"NGF: nerve growth factor, ligand which binds to the extracellular region of the TRK receptor",recognition of rat TRKA receptor,[1],binds both receptors
same,recognition of chick TRKA receptor,[2],binds both receptors
